The source of these data is US20230357420A1 (VILLARIS THERAPEUTICS, published 2023).

The Kd is the concentration at which binding is half-saturated. A word on the koff: it is the rate constant with which the complex falls apart. A low value points to slow dissociation. In general, kon refers to the rate constant with which the complex forms. A higher kon goes with fast association.

Assay [1] addresses T1, Human CD122 (human, UniProt P14784 27-551).
T1 sequence: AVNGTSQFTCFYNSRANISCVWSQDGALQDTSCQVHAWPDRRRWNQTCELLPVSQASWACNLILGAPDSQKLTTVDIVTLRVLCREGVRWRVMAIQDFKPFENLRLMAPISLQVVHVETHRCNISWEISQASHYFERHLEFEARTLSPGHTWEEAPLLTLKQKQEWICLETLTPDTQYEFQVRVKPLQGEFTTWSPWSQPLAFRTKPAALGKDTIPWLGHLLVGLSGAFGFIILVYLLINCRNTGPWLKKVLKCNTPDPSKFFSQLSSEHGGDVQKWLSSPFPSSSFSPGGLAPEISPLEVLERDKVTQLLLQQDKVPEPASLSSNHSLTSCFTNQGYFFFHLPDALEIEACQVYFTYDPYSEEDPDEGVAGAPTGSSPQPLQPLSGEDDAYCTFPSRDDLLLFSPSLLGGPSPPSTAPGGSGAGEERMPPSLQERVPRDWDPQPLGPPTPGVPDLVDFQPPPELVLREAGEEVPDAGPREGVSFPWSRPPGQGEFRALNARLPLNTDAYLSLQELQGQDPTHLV
Briefly: cell-based or functional assay.

Assay [2] addresses T2, Human BCAM protein (human, UniProt P50895 32-547, limits assumed).
T2 construct: Protein used in ELISA; also called BCAM (ELISA antigen)
T2 sequence: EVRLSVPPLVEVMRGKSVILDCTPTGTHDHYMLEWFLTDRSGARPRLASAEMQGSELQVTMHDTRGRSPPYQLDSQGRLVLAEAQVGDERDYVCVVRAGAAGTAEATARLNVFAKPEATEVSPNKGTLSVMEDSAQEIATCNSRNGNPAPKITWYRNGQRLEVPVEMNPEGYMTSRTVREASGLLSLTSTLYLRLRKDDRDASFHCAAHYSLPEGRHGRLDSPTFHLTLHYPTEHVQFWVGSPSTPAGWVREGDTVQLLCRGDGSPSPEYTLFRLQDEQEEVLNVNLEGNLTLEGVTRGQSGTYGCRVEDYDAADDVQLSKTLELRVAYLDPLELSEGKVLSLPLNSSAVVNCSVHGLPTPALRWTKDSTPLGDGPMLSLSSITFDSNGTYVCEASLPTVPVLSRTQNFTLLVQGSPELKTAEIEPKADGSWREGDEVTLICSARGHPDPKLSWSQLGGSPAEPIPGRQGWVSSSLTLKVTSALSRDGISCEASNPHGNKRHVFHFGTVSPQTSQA
Briefly: binding ELISA on human BCAM protein, IgG at log10 about 1.1 to 3.0 nM, OD450nm.

For assay [3], the target named is T3, Human CD122 His tagged (human, UniProt P14784 27-240).
T3 construct: also called hCD122; monomeric antigen; not shown: His tag
T3 sequence: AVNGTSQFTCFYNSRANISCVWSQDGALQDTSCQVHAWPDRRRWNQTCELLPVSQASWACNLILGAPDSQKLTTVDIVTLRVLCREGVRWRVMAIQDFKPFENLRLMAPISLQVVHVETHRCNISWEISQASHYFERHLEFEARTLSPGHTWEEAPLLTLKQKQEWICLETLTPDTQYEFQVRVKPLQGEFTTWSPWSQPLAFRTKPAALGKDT
In words: Biacore SPR, Fab. In general terms: Surface plasmon resonance follows binding to a sensor surface in real time, without labels.

For assay [4], the target named is T4, Rhesus CD122 His tag (rhesus monkey, UniProt Q38J85 27-240 (cynomolgus entry)).
T4 construct: also called rhCD122; cynomolgus and/or rhesus monkey CD122 His tag; not shown: His tag
T4 sequence: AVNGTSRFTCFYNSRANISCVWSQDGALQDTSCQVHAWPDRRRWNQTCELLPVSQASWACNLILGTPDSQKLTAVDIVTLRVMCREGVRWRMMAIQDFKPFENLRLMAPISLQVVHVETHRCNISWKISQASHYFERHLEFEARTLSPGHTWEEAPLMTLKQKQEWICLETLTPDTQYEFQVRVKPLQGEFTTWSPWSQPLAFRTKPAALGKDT
In words: Biacore SPR, Fab.

In assay [5] the target is T3, Human CD122 His tagged. In words: Biacore, Fab affinity and kinetics on hCD122.
Assay [6] has as its target T5, Human CILP2 protein (human, UniProt Q8IUL8 21-1156, limits assumed).
T5 construct: also called cartilage intermediate layer protein 2
T5 sequence (looked up): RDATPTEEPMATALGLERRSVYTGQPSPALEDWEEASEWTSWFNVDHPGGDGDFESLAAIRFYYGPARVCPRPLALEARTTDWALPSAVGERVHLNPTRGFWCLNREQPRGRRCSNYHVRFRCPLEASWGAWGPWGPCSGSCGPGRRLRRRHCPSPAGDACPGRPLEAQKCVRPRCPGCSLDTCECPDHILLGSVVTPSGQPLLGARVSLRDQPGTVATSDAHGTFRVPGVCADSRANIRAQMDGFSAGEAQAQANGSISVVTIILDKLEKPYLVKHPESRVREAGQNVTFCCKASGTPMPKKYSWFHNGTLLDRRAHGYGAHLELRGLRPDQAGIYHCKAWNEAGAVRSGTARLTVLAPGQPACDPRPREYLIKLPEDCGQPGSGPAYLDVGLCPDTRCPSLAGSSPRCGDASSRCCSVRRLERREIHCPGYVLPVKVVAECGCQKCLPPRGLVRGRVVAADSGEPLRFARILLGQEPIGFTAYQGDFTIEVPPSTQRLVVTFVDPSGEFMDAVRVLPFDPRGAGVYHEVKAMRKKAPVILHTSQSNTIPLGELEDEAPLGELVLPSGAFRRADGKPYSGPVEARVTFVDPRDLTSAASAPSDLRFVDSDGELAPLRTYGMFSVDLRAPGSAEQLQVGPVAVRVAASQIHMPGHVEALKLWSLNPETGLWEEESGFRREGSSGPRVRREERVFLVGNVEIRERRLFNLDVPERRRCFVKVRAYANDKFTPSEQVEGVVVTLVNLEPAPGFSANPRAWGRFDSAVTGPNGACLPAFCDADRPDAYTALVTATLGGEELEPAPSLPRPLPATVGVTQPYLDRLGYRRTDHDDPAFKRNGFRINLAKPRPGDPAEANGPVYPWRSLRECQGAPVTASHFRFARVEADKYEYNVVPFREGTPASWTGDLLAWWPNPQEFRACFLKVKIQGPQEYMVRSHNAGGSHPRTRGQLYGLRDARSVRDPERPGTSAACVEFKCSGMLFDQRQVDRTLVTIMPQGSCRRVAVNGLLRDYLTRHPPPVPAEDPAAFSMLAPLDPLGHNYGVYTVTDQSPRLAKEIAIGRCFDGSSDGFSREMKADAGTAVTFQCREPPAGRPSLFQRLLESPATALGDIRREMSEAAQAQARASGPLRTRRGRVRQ
Briefly: BIACORE SPR, Fab at 62.5, 125, 250, 500 and 1000 nM on human CILP2 protein; Rmax.

Assay [7] deals with T6, Human neudesin protein (human, UniProt Q9UMX5 32-172).
T6 construct: also called NENF
T6 sequence (Q9UMX5 32-172 limits assumed): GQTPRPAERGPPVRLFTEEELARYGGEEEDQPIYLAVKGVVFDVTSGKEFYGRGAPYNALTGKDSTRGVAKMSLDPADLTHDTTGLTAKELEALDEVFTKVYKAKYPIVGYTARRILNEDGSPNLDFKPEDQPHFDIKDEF
Briefly: BIACORE SPR, Fab at 62.5, 125, 250, 500 and 1000 nM on human neudesin protein; Rmax.

B1: MAB05 (antibody, V domains shown)
VH: EVQLLESGGGLVQPGGSLRLSCAASGFTVTSYAVHWVRQAPGKGLEWLGVIWSGGSTDYNAAFISRLTISKDNSKNTVYFQMNSLRAEDTAVYYCARAGDANYDGFAYWGQGTLVTVSS
VL: DIQMTQSPSSLSASVGDRVTITCQASQSVSFLYWYQQRPGKAPRLLIYDTSNLASGVPSRFSGSGSGTSYTFTISSLQPEDIATYYCQQWSTYPLTFGQGTKVEIK
notes: also called Mab5; clone 05
For the molecule B1, in assay [1], the “IC50, IL-15-induced CD4+ T cell accumulation” value worked out at 2.1 mg/L; the “IC50, IL-15-induced skin-resident CD8+ T cell accumulation” value is 1.9 mg/L; the “fold improvement of potency over VillMab-1, IL-15 stimulated M07e assay” value is ~2 fold. For the same molecule, the binding result in assay [2] is recorded as “no binding (tested: 1000 nM (log10 3.0))”.

B2: FAB15 (Fab, V domains shown)
VH: EVQLLESGGGLVQPGGSLRLSCAASGFSVTSYGVHWIRQAPGKGLEWLGVIWSGGSTDYNAAFISRLTISKDNSKNTVYFQMNSLRAEDTAVYYCARAGDANYDGFAYWGQGTLVTVSS
VL: DIQMTQSPSSLSASVGDRVTITCQASSSVSFMYWYQQRPGKAPRLLIYDTSNLASGVPSRFSGSGSGTSYTFTISSLQPEDIATYYCQQWSTYPLTFGQGTKVEIK
notes: 06F11-V optimization variant; also called Fab version of MAB15
B2: the Kd in assay [3] was 5.54 nM; in assay [4], 4.47 nM; in assay [5], 5.5 nM. The molecule further displayed a koff in assay [5] of 0.0034 s⁻¹. The kon in assay [5] was 610000 M⁻¹ s⁻¹. Besides, the binding result in assay [6] and in assay [7] was “no binding (tested: 1000 nM)” throughout.

B3: MAB06 (antibody, V domains shown)
VH: EVQLLESGGGLVQPGGSLRLSCAASGFTVTSYAVHWVRQAPGKGLEWLGVIWSGGSTDYNAAFISRLTISKDNSKNTVYFQMNSLRAEDTAVYYCARAGDANYDGFAYWGQGTLVTVSS
VL: DIQMTQSPSSLSASVGDRVTITCQASSSVSFMYWYQQRPGKAPRLLIYDTSNLASGVPSRFSGSGSGTSYTFTISSLQPEDIATYYCQQWSTYPLTFGQGTKVEIK
notes: also called Mab6; clone 06
In the case of B3, in assay [1], the “IC50, IL-15-induced CD4+ T cell accumulation” value was determined as 1.8 mg/L; the “IC50, IL-15-induced skin-resident CD8+ T cell accumulation” value is 1.8 mg/L; the “fold improvement of potency over VillMab-1, IL-15 stimulated M07e assay” value was ~2 fold. For the same molecule, the binding result in assay [2] was “no binding (tested: 1000 nM (log10 3.0))”.

B4: MAB14 (antibody, human IgG1, V domains shown)
VH: EVQLLESGGGLVQPGGSLRLSCAASGFSVTSYGVHWIRQAPGKGLEWLGVIWSGGSTDYNAAFISRLTISKDNSKNTVYFQMNSLRAEDTAVYYCARAGDANYDGFAYWGQGTLVTVSS
VL: DIQMTQSPSSLSASVGDRVTITCQASQSVSFLYWYQQRPGKAPRLLIYDTSNLASGVPSRFSGSGSGTSYTFTISSLQPEDIATYYCQQWSTYPLTFGQGTKVEIK
notes: also called clone 14
On to B4, for which the binding result in assay [2] is recorded as “binds”.

B5: FAB17 (Fab, V domains shown)
VH: EVQLLESGGGLVQPGGSLRLSCAASGFSVTSYGVHWIRQAPGKGLEWLGVIWSGGSTDYNAAFISRLTISKDNSKNTVYFQMNSLRAEDTAVYYCARAGDYNYDGFAYWGQGTLVTVSS
VL: DIQMTQSPSSLSASVGDRVTITCQASQSVSFLYWYQQRPGKAPRLLIYDTSNLASGVPSRFSGSGSGTSYTFTISSLQPEDIATYYCQQWSTYPLTFGQGTKVEIK
notes: 06F11-V optimization variant; also called Fab version of MAB17
For the molecule B5, the Kd was 10.7 nM in assay [3], 7.93 nM in assay [4] and 10.7 nM in assay [5]. This molecule registered a dissociation rate constant (koff) in assay [5] of 0.0046 s⁻¹. The same molecule gave a kon in assay [5] of 430000 M⁻¹ s⁻¹. The binding result in assay [6] and in assay [7] was “no binding (tested: 1000 nM)” throughout.

B6: FAB14 (Fab, V domains shown)
VH: EVQLLESGGGLVQPGGSLRLSCAASGFSVTSYGVHWIRQAPGKGLEWLGVIWSGGSTDYNAAFISRLTISKDNSKNTVYFQMNSLRAEDTAVYYCARAGDANYDGFAYWGQGTLVTVSS
VL: DIQMTQSPSSLSASVGDRVTITCQASQSVSFLYWYQQRPGKAPRLLIYDTSNLASGVPSRFSGSGSGTSYTFTISSLQPEDIATYYCQQWSTYPLTFGQGTKVEIK
notes: 06F11-V optimization variant; also called Fab version of MAB14
Regarding B6, the results for the Kd in assay [3], in assay [4] and in assay [5] were 4.34 nM, 3.52 nM and 4.3 nM, respectively. In assay [5], this molecule gave a koff of 0.0037 s⁻¹. In addition, in assay [5], the kon stood at 850000 M⁻¹ s⁻¹. For the same molecule, the binding result in assay [6] and in assay [7] was “no binding (tested: 1000 nM)” throughout.

B7: MAB17 (antibody, human IgG1, V domains shown)
VH: EVQLLESGGGLVQPGGSLRLSCAASGFSVTSYGVHWIRQAPGKGLEWLGVIWSGGSTDYNAAFISRLTISKDNSKNTVYFQMNSLRAEDTAVYYCARAGDYNYDGFAYWGQGTLVTVSS
VL: DIQMTQSPSSLSASVGDRVTITCQASQSVSFLYWYQQRPGKAPRLLIYDTSNLASGVPSRFSGSGSGTSYTFTISSLQPEDIATYYCQQWSTYPLTFGQGTKVEIK
notes: also called clone 17
B7: the binding result in assay [2] is “binds”.
